According to patent US20070009975A1 (DAKOCYTOMATION DENMARK A S, published 2007):

Key:
[1] = target: T1, alkylhydroperoxide-reductase of H. pylori (26 kDa-protein) (Helicobacter pylori, UniProt P21762 1-198); experiment: sandwich ELISA: polyclonal rabbit anti-H. pylori antigen as catcher, antigen diluted 1:2 from 50 ng/ml, mAb supernatant as detector; lowest antigen concentration with extinction >= 2x control
T1 construct: Purified as an oligomer; also called 26 kDa-antigen; Alkylhydroperoxide reduktase
T1 sequence (looked up): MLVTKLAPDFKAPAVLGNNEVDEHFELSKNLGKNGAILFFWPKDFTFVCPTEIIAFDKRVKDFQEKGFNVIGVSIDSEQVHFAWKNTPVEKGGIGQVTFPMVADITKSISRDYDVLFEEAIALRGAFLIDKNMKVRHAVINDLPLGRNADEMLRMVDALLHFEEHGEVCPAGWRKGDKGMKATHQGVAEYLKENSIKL
Procedure: (§1) Between the single steps the ELISA plate was washed 2 to 3 times with 300 μl PBS with 0.025% Tween (washing buffer) (vol.:vol.). The ELISA plates (MaxiSorb; Nunc) were coated for 1 hour at 37° C. with 100 μl of a solution of a polyclonal rabbit-anti-H. pylori antigen (pAK; approx. 10 μg antibody/ml carbonate buffer, 0.1 M, pH 9.5). In order to block the binding-sites that are still free 200 μl 150 mM PBS with 2% skimmed-milk powder (weight:volume) were pipetted per dish and incubated for 30 min at room temperature. 50 ng/ml purified H. pylori antigens solved in 150 mM PBS were diluted adding 0.1% skimmed-milk powder in 1:2 steps. The buffer served as a negative control. Then, 100 μl culture supernatant diluted 1:10 of the mAK against the same antigen, which is to be analysed, was added and incubated for 30 for 60 min at room temperature. […] The lowest concentration in which an extinction was still detected that was larger than or the same as twice the control was accepted as detection limit.

Hsp60 of H. pylori = target: T2, Hsp60 of H. pylori (Helicobacter pylori, UniProt P42383 1-546); experiment: as above
T2 construct: Purified as an oligomer
Procedure: as §1

[2] = target: H. pylori urease (oligomeric, purified) (Helicobacter pylori, UniProt P14916 1-238; P69996 1-569); experiment: SPR (BIAcore), mAb captured by rabbit anti-mouse antibody, H. pylori antigen injected; unit inferred
Procedure: First, a polyclonal rabbit-anti-mouse antibody was immobilised on the dextran matrix of the BIAcore CM5 glass carrier chip. By adding the first H. pylori antigen-specific monoclonal antibody (1. MAK; 100 μg/ml; 10 μl), it reacted with the immobilised catching antibody and the respective change was measured at the detector (ΔRU₁; RU Resonance Units). After adding the H. pylori antigen (45 μg/ml; 5 μl), it reacted with the first mAK. Then, the remaining free catching antibody was blocked with an unspecific mouse-antibody (1 mg/ml; 10 μl) and oligomeric epitopes by adding another first mAK (100 μg/ml; 10 μl). After the reaction then following of the second H. pylori-antigen-specific antibody (2nd mAK; 100 μg/ml; 10 μl) with the bound antigen, the change in the signal of the detector (ΔRU₂) was determined anew and was compared in percentage to the change at the detector after adding the 1st mAK (ΔRU₂/ΔRU₁). A ratio of ΔRU₂/ΔRU₁<10% indicated overlapping epitopes.

[3] = target: β-urease (large subunit) of H. pylori (Helicobacter pylori, UniProt P69996 1-569); experiment: sandwich ELISA: polyclonal rabbit anti-H. pylori antigen as catcher, antigen diluted 1:2 from 50 ng/ml, mAb supernatant as detector; lowest antigen concentration with extinction >= 2x control
Sequence of β-urease (large subunit) of H. pylori (P69996 whole entry): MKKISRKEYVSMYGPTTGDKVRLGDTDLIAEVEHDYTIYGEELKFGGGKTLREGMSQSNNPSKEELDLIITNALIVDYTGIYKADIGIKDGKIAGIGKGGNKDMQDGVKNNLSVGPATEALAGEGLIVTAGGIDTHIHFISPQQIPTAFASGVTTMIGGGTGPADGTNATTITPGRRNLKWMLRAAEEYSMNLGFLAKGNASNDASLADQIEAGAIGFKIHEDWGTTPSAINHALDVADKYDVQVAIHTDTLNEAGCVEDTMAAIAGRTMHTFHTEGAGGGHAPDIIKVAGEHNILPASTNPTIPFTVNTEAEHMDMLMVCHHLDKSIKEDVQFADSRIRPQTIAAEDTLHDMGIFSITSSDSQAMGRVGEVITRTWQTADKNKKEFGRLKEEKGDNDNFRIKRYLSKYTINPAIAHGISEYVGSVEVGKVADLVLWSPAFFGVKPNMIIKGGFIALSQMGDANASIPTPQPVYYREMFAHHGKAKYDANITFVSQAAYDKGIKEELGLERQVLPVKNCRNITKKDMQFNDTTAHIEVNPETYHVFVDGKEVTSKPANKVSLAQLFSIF
Procedure: as §1

T2 sequence (P42383 whole entry): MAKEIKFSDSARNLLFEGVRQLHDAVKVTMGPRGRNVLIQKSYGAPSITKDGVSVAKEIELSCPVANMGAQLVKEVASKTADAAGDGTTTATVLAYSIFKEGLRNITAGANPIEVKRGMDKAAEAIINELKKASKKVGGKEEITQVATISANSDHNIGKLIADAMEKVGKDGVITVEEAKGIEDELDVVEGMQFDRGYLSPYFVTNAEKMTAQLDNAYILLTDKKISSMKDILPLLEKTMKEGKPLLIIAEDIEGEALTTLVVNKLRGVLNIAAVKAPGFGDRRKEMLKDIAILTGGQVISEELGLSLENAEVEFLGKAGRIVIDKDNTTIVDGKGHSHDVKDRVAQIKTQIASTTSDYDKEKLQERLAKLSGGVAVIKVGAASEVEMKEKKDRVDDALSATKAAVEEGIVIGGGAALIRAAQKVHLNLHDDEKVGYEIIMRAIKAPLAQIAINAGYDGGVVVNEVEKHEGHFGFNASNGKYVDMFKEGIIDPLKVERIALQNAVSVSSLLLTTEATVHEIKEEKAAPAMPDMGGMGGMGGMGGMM
Sequence of H. pylori urease (oligomeric, purified) (P14916 whole entry, chain 1 of 2): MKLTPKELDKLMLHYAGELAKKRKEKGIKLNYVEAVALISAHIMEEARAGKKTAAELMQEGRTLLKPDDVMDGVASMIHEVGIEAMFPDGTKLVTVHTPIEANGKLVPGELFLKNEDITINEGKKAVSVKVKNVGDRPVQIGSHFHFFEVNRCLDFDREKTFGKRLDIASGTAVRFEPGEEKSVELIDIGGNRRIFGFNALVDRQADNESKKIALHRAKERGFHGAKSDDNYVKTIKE
Sequence of H. pylori urease (oligomeric, purified) (P69996 whole entry, chain 2 of 2): as the sequence (P69996 whole entry) above

B1: HP15m/3E8-D9-D6 (antibody, IgG1, V domains shown)
VH: VQLLEESGGGLVQPTGSLKLSCAASGFTFNSYAMYWVRQAPGKGLEWVARIRSKSDNYATYYANSVKDRLTISRDDSQNMLYLQMNNLKTEDTAMYYCVRDHDKFPFYYALDYWGPGTLVTVSS
VL: ELVLTQSPTIMSASLGERVTMTCTASSSVSSSYLHWYQQKPGSSPKLWIYSTSNLASGVPVRFSGSGSVTSYSLTISSMEAEDAATYYCHQYHRSPPTFGGGTKLEIK
notes: Murine; also called DSM ACC2355
[1]
  NWG (detection limit): 0.6 ng Ag/ml

B2: HP16m/2A5-E6-E5 (antibody, mouse IgG1, V domains shown)
VH: VQLLEESGPGLVAPSQSLSITCTVSGFSLSRYSVHWVRQPPGKGLEWLGMIWGGGSTDYNSGLKSRLSISNDNSKSQVFLKMNSLQTDDTAIYYCARNMGGRYPDYFDYWGQGTTLTVSS
VL: DIVLTQSPASLAVSLGQRATISCRASKSVSTSGYSYIHWYQQKPGQPPKLLIFLASNLESGVPARFSGSGSGTDFTLNIHPVEEEDAATYHCQHSRELPLTFGAGTKLELK
notes: also called DSM ACC2356
Hsp60 of H. pylori
  NWG (detection limit): 3 ng Ag/ml

B3: HP8m/4H5-D4-C9 (antibody, V domains shown)
VH: VQLLEQSGAELVKPGASVKISCKASGYAFSTSWMNWVKQRPGKGLEWIGRIYPGDGDTNYNGKFKGKATLTADKSSSTAYMQLNSLTSEDSAVYFCVREDAYYSNPYSLDYWGQGTSVTVSS
VL: DILLTQSPAILSVSPGERVSFSCRASQSIGTRIHWYQQRTNGSPRLLIKYGSESISGIPSRFSGSGSGTDFSLSINSVESEDIADYYCQQSNTWPLTFGAGTKLELK
notes: also called DSM ACC2360; first monoclonal antibody that is specific to urease
[2]
  koff: 4.5e-06 s⁻¹
[3]
  NWG (detection limit): 0.6 ng Ag/ml

B4: HP9.1m/3C2-F8-E2 (antibody, mouse IgG1, V domains shown)
VH: VQLLEESGGGLVKPGGSLQLSCSASGFTFSSHFMSWVRQTPEKRLEWVASISSGGDSFYPDSLKGRFAISRDNARNILFLQMSSLRSEDSAMYFCTRDYSWYALDYWGQGTSVTVSS
VL: ELQMTQSPSSLSASLGDTITITCHASQNINVWLSWYQQKPGDIPKLLIYKASNLHTGVPSRFSGSGSGTGFTLVISSLQPEDIATYYCQQGRSYPLTFGAGTKLELK
notes: also called DSM ACC2362; second monoclonal antibody that is specific to urease
[3]
  NWG (detection limit): 1.2 ng Ag/ml
